Measured values published in US20180118818A1.

Assays:
[1] = target: DsRed (UniProt Q9U6Y8); test: cell-based or functional assay
[2] = target: green fluorescent protein (GFP) (Aequorea-derived) [GFP: P42212]; test: cell-based or functional assay

Sequence of UniProt Q9U6Y8 (Q9U6Y8 whole entry): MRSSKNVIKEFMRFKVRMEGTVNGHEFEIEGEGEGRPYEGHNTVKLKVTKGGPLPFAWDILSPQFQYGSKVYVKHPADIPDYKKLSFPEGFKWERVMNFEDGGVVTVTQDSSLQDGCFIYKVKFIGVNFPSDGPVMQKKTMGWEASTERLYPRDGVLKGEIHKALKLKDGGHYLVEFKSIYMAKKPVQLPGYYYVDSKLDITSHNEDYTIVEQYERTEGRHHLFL

Substance	% TagBFP+ given GFP+ or DsRed+ cells in ONL (+CAG-DsRed) [1]	% Anti-TagBFP+ given GFP+ cells (CAG promoter for GFP, INL) [2]	% Anti-TagBFP+ given GFP+ cells (CAG promoter for GFP, ONL) [2]	% Anti-TagBFP+ given GFP+ cells (Rho promoter for GFP, ONL) [2]	% GFP+ cells given Anti-TagBFP+ cells (CAG promoter for GFP, INL) [2]	% GFP+ cells given Anti-TagBFP+ cells (CAG promoter for GFP, ONL) [2]	% GFP+ cells given Anti-TagBFP+ cells (Rho promoter for GFP, ONL) [2]	% TagBFP+ given GFP+ or DsRed+ cells in ONL (+CAG-GFP) [2]	fold induction of the Flp-dependent luciferase reporter by GFP, 293T cells [2]
dGBP1-TagBFP (destabilized GBP1 fused to TagBFP) (VHH)	0%	97%	100%	100%	99%	100%	100%	91%	
dGBP1x2-Flpo (Flp dependent on GFP, Flp-DOG) (VHH)									636 fold
